Data from the DeepSol protein solubility set.

Experiment: soluble on expression in E. coli; label from the status in PepcDB or PDB records

Sequence | soluble on expression in E. coli
MDDLPYLARGVMPVETPSSVLVSSSKYLNNPRLREWLAMILLRKNGPDFPPPAEMYEFLPILEELRDHDRIEAMFAEERRVNPELDAWLSEGFYSTYAIEDFRQFAPGTLGGIFYQWITEGNYEIQITPWREPKSQLEFYNLRSGQTHDFEHILCGGGFNFMGELVPYWYRLTNVFKHIRNQELAAELSMIQIFGSLRYTVRTMLHYPQIWMTCVDAIQRGMKVGQESDALFMKKLEPHFHLPLEEARAALGVRGAVDVDTEIEGAFWAGRAPLSALTERIAAELEHHHHHH | soluble
MDEEDPINPCFQTISMGGGYVSGEIYRSDFEINDDARCIITTQSSAKAYKTVDGKTSEQHTNITLGKNSILEYISDNVIVYEDGKFAQFNNFKMDSSATLIYTECFGPGSPHGSAYQYEKMYLNTKIYYDDKLVLFDNLKFQPRKNDESAFGIMDGYHYCGTMIVINQQVIEDDVIKIRDLVKEKYPDMDMIFGVSRMDIPGLGLRVLANTYYHVEKINAVAHDYFRRKLFNKKPLILRKPLEHHHHHH | not soluble
MDEFEMIKRNTSEIISEEELREVLKKDEKSAIIGFEPSGKIHLGHYLQIKKMIDLQNAGFDIIILLADLFAYLNQKGELDEIRKIGDYNKKVFEAMGLKAKYVYGSSFMLDKDYTLNVYRLALKTTLKRARRSMELIAREDENPKVAEVIYPIMQVNPLHYEGVDVAVGGMEQRKIHMLARELLPKKVVCIHNPVLTGLDGEGKMSSSKGNFIAVDDSPEEIRAKIKKAYCPAGVVEGNPIMEIAKYFLEYPLTIKRPEKFGGDLTVNSYEELESLFKNKELHPMDLKNAVAEELIKILEPIRKRLLEHHHHHH | soluble
MDEQEIQRLVEEVSLQYFGMPFLHKAMFNSRLRTTGGRYLLNTHNIELNYRYYEMYGKEELVGIVKHELCHYHLHITGRGYKHRDKDFRELLKAVDAPRFCKRMINEEKGKKVYMYECMECSLQYVRRRQINTKRYVCGKCKGKLILIKKTSLEHHHHHH | not soluble
MDFISSLIVGCAQVLCESMNMAERRGHKTDLRQAITDLETAIGDLKAIRDDLTLRIQQDGLEGRSCSNRAREWLSAVQVTETKTALLLVRFRRREQRTRMRRRYLSCFGCADYKLCKKVSAILKSIGELRERSEAIKTDGGSIQVTCREIPIKSVVGNTTMMEQVLEFLSEEEERGIIGVYGPGGVGKTTLMQSINNELITKGHQYDVLIWVQMSREFGECTIQQAVGARLGLSWDEKETGENRALKIYRALRQKRFLLLLDDVWEEIDLEKTGVPRPDRENKCKVMFTTRSIALCNNMGAEYKLRVEFLEKKHAWELFCSKVWRKDLLESSSIRRLAEIIVSKCGGLPLALITLGGAMAHRETEEEWIHASEVLTRFPAEMKGMNYVFALLKFSYDNLESDLLRSCFLYCALFPEEHSIEIEQLVEYWVGEGFLTSSHGVNTIYKGYFLIGDLKAACLLETGDEKTQVKMHNVVRSFALWMASEQGTYKELILVEPSMGHTEAPKAENWRQALVISLLDNRIQTLPEKLICPKLTTLMLQQNSSLKKIPTGFFMHMPVLRVLDLSFTSITEIPLSIKYLVELYHLSMSGTKISVLPQELGNLRKLKHLDLQRTQFLQTIPRDAICWLSKLEVLNLYYSYAGWELQSFGEDEAEELGFADLEYLENLTTLGITVLSLETLKTLFEFGALHKHIQHLHVEECNELLYFNLPSLTNHGRNLRRLSIKSCHDLEYLVTPADFENDWLPSLEVLTLHSLHNLTRVWGNSVSQDCLRNIRCINISHCNKLKNVSWVQKLPKLEVIELFDCREIEELISEHESPSVEDPTLFPSLKTLRTRDLPELNSILPSRFSFQKVETLVITNCPRVKKLPFQERRTQMNLPTVYCEEKWWKALEKDQPNEELCYLPRFVPN | not soluble
MDFSGKNVWVTGAGKGIGYATALAFVEAGAKVTGFDQAFTQEQYPFATEVMDVADAAQVAQVCQRLLAETERLDALVNAAGILRMGATDQLSKEDWQQTFAVNVGGAFNLFQQTMNQFRRQRGGAIVTVASDAAHTPRIGMSAYGASKAALKSLALSVGLELAGSGVRCNVVSPGSTDTDMQRTLWVSDDAEEQRIRGFGEQFKLGIPLGKIARPQEIANTILFLASDLASHITLQDIVVDGGSTLGA | soluble
MDFSNRLLLLLEVTELGSFTNVAEQKNLDRSVISKQISRLEEELGVRLLNRTTRSLSLTAAGNEMVNQAKLLRDLLNNTHRLAQNYHSEPRGILRITSSMMFGRQYVQDAISVFQKQYPDVKCELRLEDRVVDIVQEGFDIGFRIGRPKNSSLISRKIARSRLLIVASPDFIQQHGKIETIEKLESLPATIYAAPGLFIDKFTYLDENKVEQQFHLNVAYKVNDVEMVVKSAVAGNTLAVVTAQMIENEIIEGKLIPIMTHLNLEDFGTFFAVYPHRDAPIKTKLFIDVLKSIIGEDSPMWEKNIPDFAKLYGGTK | not soluble
MDFYYLPGSAPCRAVQMTAAAVGVELNLKLTNLMAGEHMKPEFLKINPQHCIPTLVDNGFALWESRAICTYLAEKYGKDDKLYPKDPQKRAVVNQRLYFDMGTLYQRFADYYYPQIFAKQPANAENEKKMKDAVDFLNTFLDGHKYVAGDSLTIADLTVLATVSTYDVAGFELAKYPHVAAWYERTRKEAPGAAINEAGIEEFRKYFEK | soluble
MDHYLVPYNQRANHSKPIPPFLLDLDSQSVPDALKKQTNDYYILYNPALPREIDVELHKSLDHTSVVCCVKFSNDGEYLATGCNKTTQVYRVSDGSLVARLSDDSAANKDPENLNTSSSPSSDLYIRSVCFSPDGKFLATGAEDRLIRIWDIENRKIVMILQGHEQDIYSLDYFPSGDKLVSGSGDRTVRIWDLRTGQCSLTLSIEDGVTTVAVSPGDGKYIAAGSLDRAVRVWDSETGFLVERLDSENESGTGHKDSVYSVVFTRDGQSVVSGSLDRSVKLWNLQNANNKSDSKTPNSGTCEVTYIGHKDFVLSVATTQNDEYILSGSKDRGVLFWDKKSGNPLLMLQGHRNSVISVAVANGSSLGPEYNVFATGSGDCKARIWKYKKIAPN | soluble
MDIARPSCYETVRNDDDKKSSDADIYNTSVKLEDPSAPSHDEQWTYNFFITPLNLNISPTDFKIPNDKSVKYTVKCEAKIKQDLIVQVHSLFFEIVGARCKRGVTSQEFHILSENETMTFEVGMKDLNNVSYENYQAANLLSPAGFITFTHFKSLRKDDASWGVKDPKKLMKVVTKGDGGRYNLEKLLVETETDSIKKISEDFAMILQQGMDDKRTKEQEMKMGNMEMFATEEYVEKWKKDKKAIEIAQKNQREWNDKKLEKPGMQKKKEKKCNIM | not soluble
MDIDYTVGEVELSYKPKFKNIYKVVSSEDAYKYLLPTYKEGTICYKEYFKVLFLNQASQVLGYTLISEGGITDTTVDVRVILQAALLTNSVAIILAHNHPSGSMKPSRQDMEITKQVKEAARLMRITVTDHLILTDAGYYSFADEGEL | not soluble
MDIFPGRLYLKKEVETVEGLQEILAISANRCFRCGNTNPFLFGKMTCASCDREDCLYCRNCIVMGRVNSCQKLYYQKADILPERIESCLGWEGTLSPGQKKAASAVVSSIKQKVDMLLWAVAGSGKTEMMFEGMDLALKQGFRICIASPRVDVCLELYPRLQAVFKEIDIVCLYGDSKDKYQGEQFVVATTHQLIRFYDTFQVIFIDEVDAFPYAKDPFLEYAVRKARTKVGSTIIITATPEKKWQQECATGKRNFVKIPARYHRKQLPVPRTCWIGPWKKNLAQGKITLKLINWIKKAELKNQPVLIFFPEIEAMNQFAEALVNYDFTRPVTVHSADQLRKEKVEWLREGKIKLLLTTTILERGVTFKDVQVAVFGSEGRIFTEAALVQIAGRAGRKLTHPTGDVCFFHYGKTTEMNRAITHIKKMNQLGFKEGLLDD | not soluble
MDITITLDRSEQADYIYQQIYQKLKKEILSRNLLPHSKVPSKRELAENLKVSVNSVNSAYQQLLAEGYLYAIERKGFFVEELDMFSAEEHPPFALPDDLKEIHIDQSDWISFSHMSSDTDHFPIKSWFRCEQKAASRSYRTLGDMSHPQGIYEVRAAITRLISLTRGVKCRPEQMIIGAGTQVLMQLLTELLPKEAVYAMEEPGYRRMYQLLKNAGKQVKTIMLDEKGMSIAEITRQQPDVLVTTPSHQFPSGTIMPVSRRIQLLNWAAEEPRRYIIEDDYDSEFTYDVDSIPALQSLDRFQNVIYMGTFSKSLLPGLRISYMVLPPELLRAYKQRGYDLQTCSSLTQLTLQEFIESGEYQKHIKKMKQHYKEKRERLITALEAEFSGEVTVKGANAGLHFVTEFDTRRTEQDILSHAAGLQLEIFGMSRFNLKENKRQTGRPALIIGFARLKEEDIQEGVQRLFKAVYGHKKIPVTGD | not soluble
